Target: T1, IL-1β (UniProt P01584 117-269)
T1 construct: Antigen of XPA23
Test: Biacore, Fab periplasmic extract

Binder	fold difference in affinity against the original [fold]
XPA23 heavy chain F35P (Fab, V domains shown, Fab, periplasmic extract; also called C5A F35P) VH: EVQLLESGGGLVQPGGSLRLSCAASGFTFSKYFMPWVRQAPGKGLEWVSVISPSGGMTRYADSVKGRFTISRDNSKNTLYLQMNSLRAEDTAVYYCARVGYGGNSDYWGQGTLVTVSS VL: DIQMTQSPSSVSASVGDRLTIICRASQDINRWLAWYQQTPGNAPKLLIHSATSLQSGVPSRFSGSGSGTDFTLTINSLQPEDFATYYCQQADSFPLTFGGGTKVEIK	0.06
XPA23 heavy chain I51G (Fab, V domains shown, Fab, periplasmic extract; also called C5A I51G) VH: EVQLLESGGGLVQPGGSLRLSCAASGFTFSKYFMFWVRQAPGKGLEWVSVGSPSGGMTRYADSVKGRFTISRDNSKNTLYLQMNSLRAEDTAVYYCARVGYGGNSDYWGQGTLVTVSS VL: DIQMTQSPSSVSASVGDRLTIICRASQDINRWLAWYQQTPGNAPKLLIHSATSLQSGVPSRFSGSGSGTDFTLTINSLQPEDFATYYCQQADSFPLTFGGGTKVEIK	0.94
XPA23 heavy chain G55I (Fab, V domains shown, Fab, periplasmic extract; also called C5A G55I) VH: EVQLLESGGGLVQPGGSLRLSCAASGFTFSKYFMFWVRQAPGKGLEWVSVISPSIGMTRYADSVKGRFTISRDNSKNTLYLQMNSLRAEDTAVYYCARVGYGGNSDYWGQGTLVTVSS VL: DIQMTQSPSSVSASVGDRLTIICRASQDINRWLAWYQQTPGNAPKLLIHSATSLQSGVPSRFSGSGSGTDFTLTINSLQPEDFATYYCQQADSFPLTFGGGTKVEIK	0.86
XPA23 heavy chain G56T (Fab, V domains shown, Fab, periplasmic extract; also called C5A G56T) VH: EVQLLESGGGLVQPGGSLRLSCAASGFTFSKYFMFWVRQAPGKGLEWVSVISPSGTMTRYADSVKGRFTISRDNSKNTLYLQMNSLRAEDTAVYYCARVGYGGNSDYWGQGTLVTVSS VL: DIQMTQSPSSVSASVGDRLTIICRASQDINRWLAWYQQTPGNAPKLLIHSATSLQSGVPSRFSGSGSGTDFTLTINSLQPEDFATYYCQQADSFPLTFGGGTKVEIK	1.11
XPA23 heavy chain G56I (Fab, V domains shown, Fab, periplasmic extract; also called C5A G56I) VH: EVQLLESGGGLVQPGGSLRLSCAASGFTFSKYFMFWVRQAPGKGLEWVSVISPSGIMTRYADSVKGRFTISRDNSKNTLYLQMNSLRAEDTAVYYCARVGYGGNSDYWGQGTLVTVSS VL: DIQMTQSPSSVSASVGDRLTIICRASQDINRWLAWYQQTPGNAPKLLIHSATSLQSGVPSRFSGSGSGTDFTLTINSLQPEDFATYYCQQADSFPLTFGGGTKVEIK	1.71
XPA23 heavy chain F35T (Fab, V domains shown, Fab, periplasmic extract; also called C5A F35T) VH: EVQLLESGGGLVQPGGSLRLSCAASGFTFSKYFMTWVRQAPGKGLEWVSVISPSGGMTRYADSVKGRFTISRDNSKNTLYLQMNSLRAEDTAVYYCARVGYGGNSDYWGQGTLVTVSS VL: DIQMTQSPSSVSASVGDRLTIICRASQDINRWLAWYQQTPGNAPKLLIHSATSLQSGVPSRFSGSGSGTDFTLTINSLQPEDFATYYCQQADSFPLTFGGGTKVEIK	0.74
XPA23 heavy chain G103V (Fab, V domains shown, Fab, periplasmic extract; also called C5A G103V) VH: EVQLLESGGGLVQPGGSLRLSCAASGFTFSKYFMFWVRQAPGKGLEWVSVISPSGGMTRYADSVKGRFTISRDNSKNTLYLQMNSLRAEDTAVYYCARVGYGVNSDYWGQGTLVTVSS VL: DIQMTQSPSSVSASVGDRLTIICRASQDINRWLAWYQQTPGNAPKLLIHSATSLQSGVPSRFSGSGSGTDFTLTINSLQPEDFATYYCQQADSFPLTFGGGTKVEIK	2.56
XPA23 heavy chain G56A (Fab, V domains shown, Fab, periplasmic extract; also called C5A G56A) VH: EVQLLESGGGLVQPGGSLRLSCAASGFTFSKYFMFWVRQAPGKGLEWVSVISPSGAMTRYADSVKGRFTISRDNSKNTLYLQMNSLRAEDTAVYYCARVGYGGNSDYWGQGTLVTVSS VL: DIQMTQSPSSVSASVGDRLTIICRASQDINRWLAWYQQTPGNAPKLLIHSATSLQSGVPSRFSGSGSGTDFTLTINSLQPEDFATYYCQQADSFPLTFGGGTKVEIK	1.21

More lines, now with the values ahead:

fold difference in affinity against the original [fold]	Binder
0.08	XPA23 heavy chain G55L (Fab, V domains shown, Fab, periplasmic extract; also called C5A G55L) VH: EVQLLESGGGLVQPGGSLRLSCAASGFTFSKYFMFWVRQAPGKGLEWVSVISPSLGMTRYADSVKGRFTISRDNSKNTLYLQMNSLRAEDTAVYYCARVGYGGNSDYWGQGTLVTVSS VL: DIQMTQSPSSVSASVGDRLTIICRASQDINRWLAWYQQTPGNAPKLLIHSATSLQSGVPSRFSGSGSGTDFTLTINSLQPEDFATYYCQQADSFPLTFGGGTKVEIK
1.41	XPA23 heavy chain G56L (Fab, V domains shown, Fab, periplasmic extract; also called C5A G56L) VH: EVQLLESGGGLVQPGGSLRLSCAASGFTFSKYFMFWVRQAPGKGLEWVSVISPSGLMTRYADSVKGRFTISRDNSKNTLYLQMNSLRAEDTAVYYCARVGYGGNSDYWGQGTLVTVSS VL: DIQMTQSPSSVSASVGDRLTIICRASQDINRWLAWYQQTPGNAPKLLIHSATSLQSGVPSRFSGSGSGTDFTLTINSLQPEDFATYYCQQADSFPLTFGGGTKVEIK
0.89	XPA23 heavy chain F35V (Fab, V domains shown, Fab, periplasmic extract; also called C5A F35V) VH: EVQLLESGGGLVQPGGSLRLSCAASGFTFSKYFMVWVRQAPGKGLEWVSVISPSGGMTRYADSVKGRFTISRDNSKNTLYLQMNSLRAEDTAVYYCARVGYGGNSDYWGQGTLVTVSS VL: DIQMTQSPSSVSASVGDRLTIICRASQDINRWLAWYQQTPGNAPKLLIHSATSLQSGVPSRFSGSGSGTDFTLTINSLQPEDFATYYCQQADSFPLTFGGGTKVEIK
0.12	XPA23 heavy chain G100T (Fab, V domains shown, Fab, periplasmic extract; also called C5A G100T) VH: EVQLLESGGGLVQPGGSLRLSCAASGFTFSKYFMFWVRQAPGKGLEWVSVISPSGGMTRYADSVKGRFTISRDNSKNTLYLQMNSLRAEDTAVYYCARVTYGGNSDYWGQGTLVTVSS VL: DIQMTQSPSSVSASVGDRLTIICRASQDINRWLAWYQQTPGNAPKLLIHSATSLQSGVPSRFSGSGSGTDFTLTINSLQPEDFATYYCQQADSFPLTFGGGTKVEIK
0.85	XPA23 heavy chain G56P (Fab, V domains shown, Fab, periplasmic extract; also called C5A G56P) VH: EVQLLESGGGLVQPGGSLRLSCAASGFTFSKYFMFWVRQAPGKGLEWVSVISPSGPMTRYADSVKGRFTISRDNSKNTLYLQMNSLRAEDTAVYYCARVGYGGNSDYWGQGTLVTVSS VL: DIQMTQSPSSVSASVGDRLTIICRASQDINRWLAWYQQTPGNAPKLLIHSATSLQSGVPSRFSGSGSGTDFTLTINSLQPEDFATYYCQQADSFPLTFGGGTKVEIK
1.04	XPA23 heavy chain I51A (Fab, V domains shown, Fab, periplasmic extract; also called C5A I51A) VH: EVQLLESGGGLVQPGGSLRLSCAASGFTFSKYFMFWVRQAPGKGLEWVSVASPSGGMTRYADSVKGRFTISRDNSKNTLYLQMNSLRAEDTAVYYCARVGYGGNSDYWGQGTLVTVSS VL: DIQMTQSPSSVSASVGDRLTIICRASQDINRWLAWYQQTPGNAPKLLIHSATSLQSGVPSRFSGSGSGTDFTLTINSLQPEDFATYYCQQADSFPLTFGGGTKVEIK
0.03	XPA23 heavy chain G103A (Fab, V domains shown, Fab, periplasmic extract; also called C5A G103A) VH: EVQLLESGGGLVQPGGSLRLSCAASGFTFSKYFMFWVRQAPGKGLEWVSVISPSGGMTRYADSVKGRFTISRDNSKNTLYLQMNSLRAEDTAVYYCARVGYGANSDYWGQGTLVTVSS VL: DIQMTQSPSSVSASVGDRLTIICRASQDINRWLAWYQQTPGNAPKLLIHSATSLQSGVPSRFSGSGSGTDFTLTINSLQPEDFATYYCQQADSFPLTFGGGTKVEIK

From patent US20110118131A1 (published 2011)
